Here are results for 68 molecules from patent publication US20160250307A1 (IMMATICS BIOTECHNOLOGIES, published 2016).

In the experiment the target is HLA-A*02 (human). Kind of experiment: UV-ligand exchange, anti-b2m ELISA; grade: exchange yield >=50%. A general note: ELISA stands for enzyme-linked immunosorbent assay.

Square brackets hold non-standard residues; d marks the D form. Ends that are not written are not given here. pS = N[C@@H](COP(=O)(O)O)C(=O)O

The molecule SLLHTIYEV registered a peptide exchange yield of 50 to 75%.
FLWERPTLLV: the peptide exchange yield lay within 50 to 75%.
Turning to YLGPHIASVTL, the peptide exchange yield is 50 to 75%.
On to ALLEENSTPQL, for which the peptide exchange yield is 50 to 75%.
YLGEGPRMV had a peptide exchange yield of 50 to 75%.
Regarding SVLDQKILL, the peptide exchange yield lay within 50 to 75%.
Consider SLDGKAALTEL, for which the peptide exchange yield was 50 to 75%.
For RLYDPASGTISL, the peptide exchange yield fell in the range of 50 to 75%.
LLDDSLVSI displayed a peptide exchange yield of 50 to 75%.
For the molecule SLLNFLQHL, the peptide exchange yield lay within 50 to 75%.
Molecule SLFEWFHPL registered a peptide exchange yield of 50 to 75%.
Next, SLIPAVLTV: 50 to 75%; YIQDEINTI: 50 to 75%; QQLDSKFLEQV: 50 to 75%.
For KLNDLIQRL, the peptide exchange yield lay in the range of 50 to 75%.
RTIEYLEEV: the peptide exchange yield is 50 to 75%.
ILSGIGVSQV showed a peptide exchange yield of 50 to 75%.
The molecule ALLRVTPFI gave a peptide exchange yield of 50 to 75%.
As for SLAESSFDV, the peptide exchange yield lay within 50 to 75%.
The molecule VLFQEALWHV came in with a peptide exchange yield of 50 to 75%.
Next, FLEETKATV: 50 to 75%.
Molecule RVA[pS]PTSGV (phosphopeptide from IRS2) [RVAS*PTSGV] showed a peptide exchange yield of 50 to 75%.
Next, ATLNIIHSV: 50 to 75%; ALRGEIETV: 50 to 75%.
Take KLLDLSDSTSV: the peptide exchange yield fell in the range of 50 to 75%.
The molecule VLDEPYEKV came in with a peptide exchange yield of 50 to 75%.
As for YLMEGSYNKV, the peptide exchange yield is 50 to 75%.
Next, ALANQKLYSV: 50 to 75%; YQMDIQQEL: 50 to 75%.
For the molecule TLQDHLNSL, the peptide exchange yield is 50 to 75%.
SLAVLVPIV came in with a peptide exchange yield of 50 to 75%.
Next, VLYPSLKEI: 50 to 75%; VLLAQIIQV: 50 to 75%; QLIDYERQL: 50 to 75%.
With SLLEKAGPEL, the peptide exchange yield lay in the range of 50 to 75%.
TLMDMRLSQV came in with a peptide exchange yield of 50 to 75%.
Next, YIFTTPKSV: 50 to 75%; TLFYSLREV: 50 to 75%.
For the molecule GLLDNPELRV, the peptide exchange yield fell in the range of 50 to 75%.
Take ALYGKTEVV: the peptide exchange yield lay within 50 to 75%.
Consider SLLSGRISTL, for which the peptide exchange yield was in the range of 50 to 75%.
In turn, YLLEKFVAV registered a peptide exchange yield of 50 to 75%.
The molecule SLLESNKDLLL returned a peptide exchange yield of 50 to 75%.
For SLFQGVEFHYV, the peptide exchange yield lay in the range of 50 to 75%.
ILDDNMQKL yielded a peptide exchange yield of 50 to 75%.
For KLISSYYNV, the peptide exchange yield fell in the range of 50 to 75%.
For the molecule GLFAPVHKV, the peptide exchange yield was in the range of 50 to 75%.
The molecule TLFEHLPHI had a peptide exchange yield of 50 to 75%.
Next, ALNENINQV: 50 to 75%; SLHNGVIQL: 50 to 75%; ALADKELLPSV: 50 to 75%.
In turn, AILETAPKEV showed a peptide exchange yield of 50 to 75%.
For the molecule SLFSSPPEI, the peptide exchange yield was 50 to 75%.
ALFPALRPGGFQA yielded a peptide exchange yield of 50 to 75%.
Take KLDAFVEGV: the peptide exchange yield fell in the range of 50 to 75%.
SLFGQDVKAV registered a peptide exchange yield of 50 to 75%.
Next, SLMGPVVHEV: 50 to 75%.
The molecule VVLDGGQIVTV yielded a peptide exchange yield of 50 to 75%.
Next, SLAEEKLQASV: 50 to 75%.
For KMFESFIESV, the peptide exchange yield was 50 to 75%.
As for VLPNFLPYNV, the peptide exchange yield is 50 to 75%.
As to RVQEAIAEV, the peptide exchange yield lay within 50 to 75%.
Next, FLLGFIPAKA: 50 to 75%.
For TLAELGAVQV, the peptide exchange yield fell in the range of 50 to 75%.
GQFPSYLETV had a peptide exchange yield of 50 to 75%.
On to ALIEGAGILL, for which the peptide exchange yield was 50 to 75%.
GLLAGDRLVEV had a peptide exchange yield of 50 to 75%.
Molecule YLLHFPMAL came in with a peptide exchange yield of 50 to 75%.
